Data taken from article doi:10.1101/2021.02.07.430167 (bioRxiv, 2021).

Molecular target: T1, human TRADD death domain (199-312) (human, UniProt Q15628 199-312)
T1 sequence: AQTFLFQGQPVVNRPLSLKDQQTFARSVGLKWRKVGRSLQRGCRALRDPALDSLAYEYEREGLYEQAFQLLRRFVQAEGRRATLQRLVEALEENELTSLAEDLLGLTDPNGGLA
Experiment: NMR solution structure

B1: human p75 neurotrophin receptor death domain (330-427) (domain or fragment)
chain: KGDGGLYSSLPPAKREEVEKLLNGSAGDTWRHLAGELGYQPEHIDSFTHEACPVRALLASWATQDSATLDALLAALRRIQRADLVESLCSESTATSPV
  binding result: binds
